Molecular target: HLA-A*0201 (human)
Assay: competition with 125I-labelled standard peptide 941.01 for purified HLA, gel filtration
Details: remark: other sources report otherwise; scale: ratio

Row | binding affinity ratio | Binder
1 | 0.0008 | WVLTAAHCI (modifications not checked) [… (PSA, position 55, 9 amino acids)]

Same assay, conditions: scale: ratio

Row | binding affinity ratio | Binder
2 | 0.0002 | GAVEPDRYVI (modifications not checked)
3 | 0.0001 | GAVEPDRYV (modifications not checked)
4 | 0.0001 | GITSWGSEPCA (modifications not checked) [PSA peptide … (position 221)]
5 | 0.0005 | GAAPLILSRI (modifications not checked) [PSA peptide … (position 12)]
6 | 0.0002 | WATEDTMTKL (modifications not checked) [… (PAP, position 226, 10 amino acids)]
7 | 0.0005 | WIGAAPLI (modifications not checked) [WIGAAPLI (PSA, position 10, 8 amino acids)]
8 | 0.0002 | GIWSKVYDPL (modifications not checked) [PAP peptide … (position 204)]
9 | 0.0002 | GIDPQSGAAV (modifications not checked) [PSM peptide … (position 385)]
10 | 0.0001 | WIKDTIVA (modifications not checked) [WIKDTIVA (PSA, position 248, 8 amino acids)]
11 | 0.0001 | FTVQAAAETL (modifications not checked) [PSM peptide … (position 737)]
12 | -0.0001 | WAHCGGVLV (modifications not checked) [… (Kallikrein, position 47, 9 amino acids)]
13 | 0.0002 | GAAVVHEIV (modifications not checked) [PSM peptide … (position 391)]
14 | 0.0005 | WIGAAPLIL (modifications not checked) [… (PSA, position 10, 9 amino acids)]

Molecular target: HLA-A*0201 (human)
Assay: inhibition of 125I-labelled probe peptide binding to purified HLA-A*0201, gel filtration
Details: not given

Row | IC50 | Binder
15 | < 200 nM | MLLRLSEPAEL (modifications not checked)
16 | < 200 nM | TLMSAMTNL (modifications not checked) [PAP.112 …]
17 | < 200 nM | LLLARAASLSL (modifications not checked) [PAP.6 …]
18 | < 200 nM | LMYSLVHNL (modifications not checked) [PSM.469 …]

Same assay, conditions: remark: other sources report otherwise

Row | IC50 | Binder
19 | < 200 nM | VLAKELKFV (modifications not checked) [PAP.30 …]
20 | < 200 nM | VLAGGFFLL (modifications not checked) [PSM.27 …]
21 | < 200 nM | GLPSIPVHPI (modifications not checked) [PSM.288 …]
22 | < 200 nM | FLNESYKHEQV (modifications not checked) [PAP.92 …]
23 | < 200 nM | MLLRLSEPA (modifications not checked)
24 | < 200 nM | LMLLRLSEPA (modifications not checked) [PSA.117 …]
25 | < 200 nM | LLFFWLDRSV (modifications not checked) [PAP.21 …]
26 | < 200 nM | IMYSAHDTTV (modifications not checked) [PAP.284 …]
27 | < 200 nM | FLTPKKLQCV (modifications not checked) [PSA.161 …]
28 | < 200 nM | KLQCVDLHV (modifications not checked) [PSA.166 …]
29 | < 200 nM | LLQERGVAYI (modifications not checked) [PSM.441 …]
30 | < 200 nM | LVLAGGFFL (modifications not checked) [PSM.26 …]
31 | < 200 nM | RMMNDQLMFL (modifications not checked) [PSM.662 …]
32 | < 200 nM | GMPEGDLVYV (modifications not checked) [PSM.168 …]
33 | < 200 nM | ALGTTCYA (modifications not checked) [PSA.143 ALGTTCYA]
34 | < 200 nM | ALDVYNGLL (modifications not checked) [PAP.299 …]
35 | < 200 nM | ILLWQPIPV (modifications not checked) [PAP.135 …]

Molecular target: HLA-A*0201 (human)
Assay: inhibition of 125I-labelled standard peptide binding to purified HLA-A*0201, gel filtration
Details: not given

Row | binding affinity ratio (IC50 of standard peptide / IC50 of test peptide) | Binder
36 | 0.0001 | AVKVMDLPT (modifications not checked) [… (PSA, position 131)]
37 | 0.0002 | CAQVHPQKV (modifications not checked)
38 | 0.0002 | ATQIPSYKKL (modifications not checked) [… (PAP, position 274)]
39 | 0.0003 | CIRNKSVIL (modifications not checked)
40 | 0.0001 | AVEPDRYVI (modifications not checked)
41 | 0.0001 | CVDLHVISNDV (modifications not checked) [… (PSA, position 169)]
42 | 0.0001 | CIRNKSVILL (modifications not checked)
43 | 0.0002 | CMTTNSHQGT (modifications not checked) [… (PAP, position 372)]
44 | 0.0003 | AVCGGVLV (modifications not checked) [AVCGGVLV (PSA, position 44)]
45 | 0.0001 | CALPERPSL (modifications not checked) [… (PSA, position 230)]
46 | 0.0002 | AVEPDRYVIL (modifications not checked)
47 | 0.0001 | CIRNKSVI (modifications not checked) [CIRNKSVI (PSA, position 62)]
48 | 0.0001 | CAQVHPQKVT (modifications not checked)

Same assay, conditions: remark: other sources report otherwise

Row | binding affinity ratio (IC50 of standard peptide / IC50 of test peptide) | Binder
49 | 0.0002 | CALPEKPAV (modifications not checked) [… (Kallikrein, position 234)]

Molecular target: HLA-A*0201 (human)
Assay: competitive inhibition of 125I-labelled standard peptide binding to purified HLA, gel filtration; ratio = IC50 standard / IC50 test peptide
Details: not given

Row | binding affinity ratio | Binder
50 | 0.0001 | VLRMMNDQL (modifications not checked)
51 | 0.0002 | VIGTLRGAV (modifications not checked) [… (PSM, position 358)]
52 | 0.0001 | VISNDVCA (modifications not checked) [VISNDVCA (PSA, position 174)]
53 | 0.0001 | VLVASRGRA (modifications not checked)
54 | 0.0001 | VLVHPQWVLT (modifications not checked) [… (PSA, position 49), listing 1 of 2 here]
55 | 0.0002 | VLSIALSVGCT (modifications not checked) [… (Kallikrein, position 5)]
56 | 0.0003 | VLRMMNDQLM (modifications not checked)
57 | 0.0001 | VMDLPTQEPA (modifications not checked) [… (PSA, position 134)]
58 | 0.0001 | VLVHPQWV (modifications not checked) [VLVHPQWV (Kallikrein, position 53)]
59 | 0.0001 | VAYINADSSI (modifications not checked) [… (PSM, position 447)]
60 | 0.0008 | VLVNEILNHM (modifications not checked) [… (PAP, position 262)]
61 | 0.0001 | VLVHPQWVLT (modifications not checked) [… (Kallikrein, position 53), listing 2 of 2 here]
62 | 0.0003 | VILLGRHSL (modifications not checked) [… (PSA, position 68)]
63 | 0.0001 | VLTAAHCI (modifications not checked) [VLTAAHCI (PSA, position 56)]
64 | 0.0001 | VLVHPQWV (modifications not checked) [VLVHPQWV (PSA, position 49)]
65 | 0.0001 | VATARRPRWL (modifications not checked) [… (PSM, position 12)]
66 | 0.0003 | VLVASRGRAV (modifications not checked)
67 | 0.0002 | VLRKYADKI (modifications not checked) [… (PSM, position 603)]
68 | 0.02 | VLVHPQWVL (modifications not checked) [… (PSA, position 49), listing 1 of 2 here]
69 | 0.0002 | VLLSYPNKT (modifications not checked) [… (PSM, position 115)]
70 | 0.02 | VLVHPQWVL (modifications not checked) [… (Kallikrein, position 53), listing 2 of 2 here]

Same assay, conditions: remark: other sources report otherwise

Row | binding affinity ratio | Binder
71 | 0.0008 | VISNDVCAQV (modifications not checked) [… (PSA, position 174)]

From patent publication US20070020327A1
